Test results published in paper PMC3974700, “SDA, a DNA Aptamer Inhibiting E- and P-Selectin Mediated Adhesion of Cancer and Leukemia Cells, the First and Pivotal Step in Transendothelial Migration during Metastasis Formation”.

T1: E-selectin/IgG-Fc chimera (human, UniProt P16581 22-556)
T1 sequence: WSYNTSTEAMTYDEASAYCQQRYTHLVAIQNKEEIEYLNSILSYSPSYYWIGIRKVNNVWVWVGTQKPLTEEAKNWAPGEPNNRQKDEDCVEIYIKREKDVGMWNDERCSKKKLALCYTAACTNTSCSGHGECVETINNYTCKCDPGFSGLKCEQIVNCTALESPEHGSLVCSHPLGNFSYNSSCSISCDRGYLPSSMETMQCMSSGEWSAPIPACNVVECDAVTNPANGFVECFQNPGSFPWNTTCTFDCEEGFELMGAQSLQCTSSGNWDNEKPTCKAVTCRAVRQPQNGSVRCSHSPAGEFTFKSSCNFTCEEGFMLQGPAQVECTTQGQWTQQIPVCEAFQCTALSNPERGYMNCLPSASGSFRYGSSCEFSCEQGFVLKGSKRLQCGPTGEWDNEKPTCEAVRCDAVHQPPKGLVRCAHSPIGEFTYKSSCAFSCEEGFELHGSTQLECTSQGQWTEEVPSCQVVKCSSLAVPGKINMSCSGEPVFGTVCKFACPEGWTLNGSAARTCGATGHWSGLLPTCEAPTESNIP


How the values were obtained:
[1] = molecular target: P-selectin/IgG-Fc chimera (human, UniProt P16109 42-771); assay: filter binding; 3 mM Mg2+; Selection buffer: 3 mM MgCl2 in PBS, pH 7.5 (with 1 mg/mL BSA as described for SELEX beads); room temperature, 30 min; DNA <1 nM, protein 0-1 uM; details: protein: commercial; tags: IgG-Fc fusion; chain copies: 2; label: 32P (T4 polynucleotide kinase)
[2] = molecular target: T1, E-selectin/IgG-Fc chimera; assay: as above; details: protein: commercial; tags: IgG-Fc fusion; chain copies: 2; label: 32P (T4 polynucleotide kinase)

P-selectin/IgG-Fc chimera, sequence (P16109 42-771, change not shown): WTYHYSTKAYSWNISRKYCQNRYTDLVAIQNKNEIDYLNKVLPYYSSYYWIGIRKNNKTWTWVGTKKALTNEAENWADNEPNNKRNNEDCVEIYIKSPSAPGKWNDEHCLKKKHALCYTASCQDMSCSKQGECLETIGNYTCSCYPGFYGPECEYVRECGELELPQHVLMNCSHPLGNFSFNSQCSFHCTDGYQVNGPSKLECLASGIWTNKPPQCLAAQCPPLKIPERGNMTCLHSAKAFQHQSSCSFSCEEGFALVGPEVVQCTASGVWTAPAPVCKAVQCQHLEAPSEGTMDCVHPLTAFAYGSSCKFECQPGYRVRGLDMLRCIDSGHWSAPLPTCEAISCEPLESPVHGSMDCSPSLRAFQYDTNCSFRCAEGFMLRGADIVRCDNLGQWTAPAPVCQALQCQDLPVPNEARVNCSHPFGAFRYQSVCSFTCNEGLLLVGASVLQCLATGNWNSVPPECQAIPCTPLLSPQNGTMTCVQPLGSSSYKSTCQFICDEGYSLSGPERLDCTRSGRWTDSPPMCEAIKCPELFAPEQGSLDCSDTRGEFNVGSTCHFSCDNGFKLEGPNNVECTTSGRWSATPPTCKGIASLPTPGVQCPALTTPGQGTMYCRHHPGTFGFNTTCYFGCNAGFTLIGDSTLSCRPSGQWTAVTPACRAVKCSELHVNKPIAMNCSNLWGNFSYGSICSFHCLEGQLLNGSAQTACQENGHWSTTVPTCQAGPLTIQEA

Binder	binding result [1]	binding result [2]	Kd [1] [nM]	Kd [2] [nM]
control DNA (ssDNA) DNA: GCCTGTTGTGAGCCTCCTAACGAGGAGTGGGCTAAAGGTATGTTGTGGGTTTGGTTCCATGCTTATTCTTGTCTCCC	no binding	no binding	–	–
SDA (ssDNA) DNA: GCCTGTTGTGAGCCTCCTAACGATTTGGATTTGGGGTGGAGGGTATGGTTTGTGCTGGCGTTCTCATTTCCCATGCTTATTCTTGTCTCCC	–	–	95 ± 18	98 ± 16
